{"source": "paper PMC3477848", "about": "(Biochemistry, 2012)", "binders": {"B1": {"name": "37-nt hairpin primer-template, 5'-Cy3 (structured_DNA)", "DNA": "TTTTTTTTTTCCCGGGCCGGCGTTTCGCCGGCCCGGG"}}, "assay_in_all_cases": "fluorescence anisotropy", "key": {"[1]": {"target": "T1, Dpo1 exo- (SsoDpo1, B-family DNA polymerase) (Sulfolobus solfataricus, UniProt P26811 1-882, D231A;D318A)", "T1 sequence": "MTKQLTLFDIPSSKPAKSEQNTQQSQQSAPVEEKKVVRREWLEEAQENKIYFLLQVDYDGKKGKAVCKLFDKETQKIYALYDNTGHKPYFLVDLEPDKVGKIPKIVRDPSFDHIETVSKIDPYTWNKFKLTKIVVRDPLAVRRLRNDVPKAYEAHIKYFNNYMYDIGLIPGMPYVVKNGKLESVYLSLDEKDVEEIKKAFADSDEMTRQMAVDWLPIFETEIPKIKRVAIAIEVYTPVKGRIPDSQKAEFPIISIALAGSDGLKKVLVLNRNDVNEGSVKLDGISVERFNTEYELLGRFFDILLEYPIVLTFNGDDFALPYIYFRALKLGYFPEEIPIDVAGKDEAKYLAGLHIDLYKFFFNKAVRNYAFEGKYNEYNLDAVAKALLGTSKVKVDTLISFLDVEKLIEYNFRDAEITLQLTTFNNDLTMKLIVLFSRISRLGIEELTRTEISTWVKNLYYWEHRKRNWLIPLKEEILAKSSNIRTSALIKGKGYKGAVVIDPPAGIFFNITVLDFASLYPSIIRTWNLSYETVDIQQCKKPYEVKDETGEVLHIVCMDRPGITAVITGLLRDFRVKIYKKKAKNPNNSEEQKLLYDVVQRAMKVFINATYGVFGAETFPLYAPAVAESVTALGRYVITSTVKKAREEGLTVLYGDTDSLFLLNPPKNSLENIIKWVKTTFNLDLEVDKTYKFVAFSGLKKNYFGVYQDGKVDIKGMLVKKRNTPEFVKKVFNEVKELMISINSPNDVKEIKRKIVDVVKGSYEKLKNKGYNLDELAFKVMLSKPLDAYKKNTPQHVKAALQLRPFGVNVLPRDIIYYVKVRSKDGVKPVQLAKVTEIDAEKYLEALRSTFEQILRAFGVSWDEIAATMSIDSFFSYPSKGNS"}, "[2]": {"target": "T1, Dpo1 exo- (SsoDpo1, B-family DNA …)", "remark": "listed apart in the source"}, "[3]": {"target": "T2, Dpo4 (SsoDpo4, Y-family DNA polymerase) (Sulfolobus solfataricus, UniProt Q97W02 1-352)", "T2 sequence": "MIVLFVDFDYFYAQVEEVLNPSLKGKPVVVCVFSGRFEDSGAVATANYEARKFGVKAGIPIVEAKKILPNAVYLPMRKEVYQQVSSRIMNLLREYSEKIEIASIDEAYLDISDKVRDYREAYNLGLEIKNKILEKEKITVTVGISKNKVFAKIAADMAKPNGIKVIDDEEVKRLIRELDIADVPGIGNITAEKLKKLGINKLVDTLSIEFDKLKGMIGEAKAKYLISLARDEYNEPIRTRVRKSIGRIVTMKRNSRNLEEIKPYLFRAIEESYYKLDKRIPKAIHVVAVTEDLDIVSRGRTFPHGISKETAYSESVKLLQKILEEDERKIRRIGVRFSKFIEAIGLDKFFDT"}, "[4]": {"target": "T1, Dpo1 exo- (SsoDpo1, B-family DNA …)", "remark": "listed apart in the source"}, "[5]": {"target": "T1, Dpo1 exo- (SsoDpo1, B-family DNA …)", "remark": "listed apart in the source"}, "[6]": {"target": "T2, Dpo4 (SsoDpo4, Y-family DNA polymerase)", "remark": "listed apart in the source"}, "[7]": {"target": "T1, Dpo1 exo- (SsoDpo1, B-family DNA …)", "remark": "listed apart in the source"}}, "note": "Where two headings read alike, the source gives them in different places."}
{"binder": "B1", "values": [{"measurement": "Kd", "setting": "[1]", "result": "105 ± 3", "unit": "nM"}, {"measurement": "Kd", "setting": "[2]", "result": "97 ± 3", "unit": "nM"}, {"measurement": "Kd", "setting": "[3]", "result": "125 ± 51", "unit": "nM"}, {"measurement": "Kd", "setting": "[4]", "result": "144 ± 15", "unit": "nM"}, {"measurement": "Kd", "setting": "[5]", "result": "113 ± 32", "unit": "nM"}, {"measurement": "Kd", "setting": "[6]", "result": "444 ± 115", "unit": "nM"}, {"measurement": "Kd", "setting": "[7]", "result": "208 ± 22", "unit": "nM"}]}
